According to publication PMC10730906:

Target: purified TslA lipase domain (N-terminal domain of SAOUHSC_00406) (S. aureus) (UniProt Q2G0W8)
Test: ITC; 30 uM TslA in the cell, 300 uM TilA in the syringe; 20 mM HEPES pH 7.5, 150 mM NaCl, 25 °C; Microcal PEAQ-ITC

B1: purified TilA lacking its signal sequence, His tag removed (SAOUHSC_00405) (natural protein)
chain: CGNMKDEQKKEEQTNKTDSKEEQIKKSFAKTLDMYPIKNLEDLYDKEGYRDGEFKKGDKGTWTILTGFSKSNKPGVLDDEGMVLYLNRNTKKATGYYFVNKVYDDISKNHNEKKYRVELKNNKIVLLDNVEDKKLKQKIENFKFFSQYADFKDLKNYQDGNITTNENVPSYEAQYKMNNSDKNVKKLREIYPITTNNSPNLKLYIDGDIKGSSVGYKKIEYKFSKDKGQETTLRDYLNFGPSEGENVE
- Kd: 14.2 nM
- dH: -20.5 kcal/mol
- stoichiometry N: 0.88
